The assay has as its target T1, C1q derived from serum (human, UniProt P02745 23-245; P02746 28-253; P02747 29-245).
T1 construct: mature; Native C1q from serum, the comparator in SPR; The SPR paragraph says only 'serum C1q'; also called serC1q; serum C1q
Briefly: SPR, C1q immobilized on CM5 chip, tetramer injected at 1-24 nM.

The text below walks through data of patent US20150329606A1 (COMMISSARIAT A L ENERGIE ATOMIQUE ET AUX ENERGIES …, published 2015).

T1 sequence (P02745 23-245, chain 1 of 3): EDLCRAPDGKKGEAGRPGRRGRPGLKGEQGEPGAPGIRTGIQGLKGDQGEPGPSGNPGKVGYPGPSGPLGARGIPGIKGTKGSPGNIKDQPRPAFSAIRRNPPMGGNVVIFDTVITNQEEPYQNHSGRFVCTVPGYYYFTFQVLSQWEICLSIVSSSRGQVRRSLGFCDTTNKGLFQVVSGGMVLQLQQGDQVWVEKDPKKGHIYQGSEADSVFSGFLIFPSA
T1 sequence (P02746 28-253, chain 2 of 3): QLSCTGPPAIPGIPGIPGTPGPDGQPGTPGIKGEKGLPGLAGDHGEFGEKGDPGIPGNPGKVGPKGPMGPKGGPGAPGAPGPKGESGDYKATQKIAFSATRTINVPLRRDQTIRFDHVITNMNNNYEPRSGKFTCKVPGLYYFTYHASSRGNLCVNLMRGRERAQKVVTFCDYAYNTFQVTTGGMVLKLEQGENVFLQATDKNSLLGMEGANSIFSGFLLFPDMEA
T1 sequence (P02747 29-245, chain 3 of 3): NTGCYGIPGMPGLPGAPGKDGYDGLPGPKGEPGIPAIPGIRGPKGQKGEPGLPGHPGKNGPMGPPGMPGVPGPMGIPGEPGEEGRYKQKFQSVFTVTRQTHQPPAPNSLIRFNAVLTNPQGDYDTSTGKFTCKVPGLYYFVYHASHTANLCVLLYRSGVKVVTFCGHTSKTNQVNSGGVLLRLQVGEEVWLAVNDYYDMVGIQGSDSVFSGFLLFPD

B1: C1s-C1r-C1r-C1s tetramer (enzyme)
chain 1: SIPIPQKLFGEVTSPLFPKPYPNNFETTTVITVPTGYRVKLVFQQFDLEPSEGCFYDYVKISADKKSLGRFCGQLGSPLGNPPGKKEFMSQGNKMLLTFHTDFSNEENGTIMFYKGFLAYYQAVDLDECASRSKSGEEDPQPQCQHLCHNYVGGYFCSCRPGYELQEDTHSCQAECSSELYTEASGYISSLEYPRSYPPDLRCNYSIRVERGLTLHLKFLEPFDIDDHQQVHCPYDQLQIYANGKNIGEFCGKQRPPDLDTSSNAVDLLFFTDESGDSRGWKLRYTTEIIKCPQPKTLDEFTIIQNLQPQYQFRDYFIATCKQGYQLIEGNQVLHSFTAVCQDDGTWHRAMPRCKIKDCGQPRNLPNGDFRYTTTMGVNTYKARIQYYCHEPYYKMQTRAGSRESEQGVYTCTAQGIWKNEQKGEKIPRCLPVCGKPVNPVEQRQRIIGGQKAKMGNFPWQVFTNIHGRGGGALLGDRWILTAAHTLYPKEHEAQSNASLDVFLGHTNVEELMKLGNHPIRRVSVHPDYRQDESYNFEGDIALLELENSVTLGPNLLPICLPDNDTFYDLGLMGYVSGFGVMEEKIAHDLRFVRLPVANPQACENWLRGKNRMDVFSQNMFCAGHPSLKQDACQGDSGGVFAVRDPNTDRWVATGIVSWGIGCSRGYGFYTKVLNYVDWIKKEMEEED
chain 2: EPTMYGEILSPNYPQAYPSEVEKSWDIEVPEGYGIHLYFTHLDIELSENCAYDSVQIISGDTEEGRLCGQRSSNNPHSPIVEEFQVPYNKLQVIFKSDFSNEERFTGFAAYYVATDINECTDFVDVPCSHFCNNFIGGYFCSCPPEYFLHDDMKNCGVNCSGDVFTALIGEIASPNYPKPYPENSRCEYQIRLEKGFQVVVTLRREDFDVEAADSAGNCLDSLVFVAGDRQFGPYCGHGFPGPLNIETKSNALDIIFQTDLTGQKKGWKLRYHGDPMPCPKEDTPNSVWEPAKAKYVFRDVVQITCLDGFEVVEGRVGATSFYSTCQSNGKWSNSKLKCQPVDCGIPESIENGKVEDPESTLFGSVIRYTCEEPYYYMENGGGGEYHCAGNGSWVNEVLGPELPKCVPVCGVPREPFEEKQRIIGGSDADIKNFPWQVFFDNPWAGGALINEYWVLTAAHVVEGNREPTMYVGSTSVQTSRLAKSKMLTPEHVFIHPGWKLLEVPEGRTNFDNDIALVRLKDPVKMGPTVSPICLPGTSSDYNLMDGDLGLISGWGRTEKRDRAVRLKAARLPVAPLRKCKEVKVEKPTADAEAYVFTPNMICAGGEKGMDSCKGDSGGAFAVQDPNDKTKFYAAGLVSWGPQCGTYGLYTRVKNYVDWIMKTMQENSTPRED
notes: also called C1s-C1r-C1r-C1s proenzyme tetramer;2-C1s2
Broadly, the Kd is the constant that tells how readily two partners part at equilibrium. Broadly, the koff is the first-order rate constant of dissociation. Low values mean slow dissociation, high ones fast dissociation. A word on the kon: it is the rate constant with which the complex forms. Read a high kon as faster complex formation. B1: binding was characterised by a dissociation constant (Kd) of 3.12 nM, the koff amounted to 0.00212 s⁻¹ and the kon amounted to 681000 M⁻¹ s⁻¹.
